Laboratory results: the RNAGym collection of RNA variant scans (doi:10.1073/pnas.2313332121)

B1: TPR t1 (parent)
chain: GACCAAUCUGCCCUCAGAGCUCGAGAACAUCUUCGGAUGCAGAGGAGGCAGGCUUCGGUGGCGCGAUAGCGCCAACGUCCUCAACCUCCAAUGCAUCCCACCACAUGAUGAUGCCUGAAGAGCCUUGGUUUUUUG

Variants of: B1
Assay: polymerase ribozyme fitness, log enrichment relative to wild type (log ratio); higher = more active; in vitro selection for triplet polymerase activity
How it was run: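 To select mutant libraries of each subunit of a heterodimeric triplet polymerase ribozyme, built by PCR and transcribed, each was annealed with a biotinylated primer, partner subunit and triplets, then incubated frozen at −7 °C. Extended constructs were gel-excised, captured on streptavidin beads and amplified by RT-PCR, in one round carried out in triplicate. Illumina sequencing of input and output libraries kept genotypes with ≥10 input reads and ≥1 read per output. Fitness is the base-2 logarithm of genotype enrichment relative to wild-type enrichment, from inverse-variance-weighted replicate averages.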
For U96A U129C, the “polymerase ribozyme fitness (log ratio)” value was -1.7.
For U54A G71U U87G C123A, the “polymerase ribozyme fitness (log ratio)” value was -0.353.
In the case of C3U G93U, the “polymerase ribozyme fitness (log ratio)” value is reported as -1.95.
In the case of C40U C72U U116G G120C G128U, the “polymerase ribozyme fitness (log ratio)” value is reported as -4.53.
In the case of C11A C49U C85A U106A, the “polymerase ribozyme fitness (log ratio)” value is reported as -3.44.
In the case of C8G G10U G69U U81C, the “polymerase ribozyme fitness (log ratio)” value is reported as -0.318.
In the case of A68G A74G C79A, the “polymerase ribozyme fitness (log ratio)” value is reported as -4.8.
In the case of A46U C80A, the “polymerase ribozyme fitness (log ratio)” value is reported as -4.71.
With C11U C20A G61U U133G the “polymerase ribozyme fitness (log ratio)” value was -2.19.
In the case of U54G U55G G60C C85U, the “polymerase ribozyme fitness (log ratio)” value is reported as -6.29.
In the case of C12U C15A G52A, the “polymerase ribozyme fitness (log ratio)” value is reported as -0.639.
For A5C G58A C89A C94G C101U, the “polymerase ribozyme fitness (log ratio)” value was -5.27.
With U92G G120A A121C the “polymerase ribozyme fitness (log ratio)” value was -2.53.
For G61U G110A, the “polymerase ribozyme fitness (log ratio)” value was -0.469.
In the case of C56G A74G, the “polymerase ribozyme fitness (log ratio)” value is reported as -1.5.
For C89G G93C, the “polymerase ribozyme fitness (log ratio)” value was -3.36.
For G35U A84C, the “polymerase ribozyme fitness (log ratio)” value was -5.41.
For A29U G117A, the “polymerase ribozyme fitness (log ratio)” value was -3.25.
With G51A G71U G77U the “polymerase ribozyme fitness (log ratio)” value was -3.39.
For A37C G120A G122A, the “polymerase ribozyme fitness (log ratio)” value was -1.07.
For C8U G51A A121C U131G, the “polymerase ribozyme fitness (log ratio)” value was -0.214.
For C53G C79U G122A, the “polymerase ribozyme fitness (log ratio)” value was -3.43.
With G48A C123A the “polymerase ribozyme fitness (log ratio)” value was 0.577.
For A46U G63U U96G, the “polymerase ribozyme fitness (log ratio)” value was -2.43.
With G44C A46U G58A G63U G117A U130G the “polymerase ribozyme fitness (log ratio)” value was -6.42.
For C12G C40G C62U, the “polymerase ribozyme fitness (log ratio)” value was -0.941.
In the case of C72A C86G G122A, the “polymerase ribozyme fitness (log ratio)” value is reported as -2.26.
For C11U C56U A95G, the “polymerase ribozyme fitness (log ratio)” value was -0.936.
For U21A A29G A43U C56G A83C A91C G120U, the “polymerase ribozyme fitness (log ratio)” value was -5.54.
With C12G C15A A50C the “polymerase ribozyme fitness (log ratio)” value was -2.29.
With A50U U96A the “polymerase ribozyme fitness (log ratio)” value was -1.77.
For G77C U96A U125A, the “polymerase ribozyme fitness (log ratio)” value was -3.38.
With C49A U78A G120C the “polymerase ribozyme fitness (log ratio)” value was 0.377.
In the case of A84G A95U C104A A121C, the “polymerase ribozyme fitness (log ratio)” value is reported as -2.33.
In the case of G60A C82G C86A U87G, the “polymerase ribozyme fitness (log ratio)” value is reported as -1.52.
With G39C C53G G107C A121U the “polymerase ribozyme fitness (log ratio)” value was -4.92.
In the case of U132G, the “polymerase ribozyme fitness (log ratio)” value is reported as -2.28.
For C3G C12G C40A, the “polymerase ribozyme fitness (log ratio)” value was -3.27.
In the case of C94A U129G, the “polymerase ribozyme fitness (log ratio)” value is reported as -1.07.
In the case of C62U G117C, the “polymerase ribozyme fitness (log ratio)” value is reported as -3.31.
In the case of C94A G127U, the “polymerase ribozyme fitness (log ratio)” value is reported as -1.5.
With C4A A50G C70U A84C C115A the “polymerase ribozyme fitness (log ratio)” value was -2.59.
With G71U U78A C80U C114G the “polymerase ribozyme fitness (log ratio)” value was -2.44.
For C31U U129G, the “polymerase ribozyme fitness (log ratio)” value was -5.03.
With C11G C20U A46G A83G A95G the “polymerase ribozyme fitness (log ratio)” value was -1.9.
In the case of C56A G69A A84G A121C, the “polymerase ribozyme fitness (log ratio)” value is reported as -3.85.
In the case of C13G U33C C72U U81A C101G G110U U132A, the “polymerase ribozyme fitness (log ratio)” value is reported as -6.08.
In the case of C13G U59A, the “polymerase ribozyme fitness (log ratio)” value is reported as -1.41.
With U9G U21A G127A the “polymerase ribozyme fitness (log ratio)” value was -0.983.
For A2G C13A C72U U129G, the “polymerase ribozyme fitness (log ratio)” value was -2.36.
In the case of A18U A90C G120A, the “polymerase ribozyme fitness (log ratio)” value is reported as -0.842.
With G10A C22G G47A G60A the “polymerase ribozyme fitness (log ratio)” value was -3.93.
For G48A A95U, the “polymerase ribozyme fitness (log ratio)” value was -1.28.
For C8U A118G, the “polymerase ribozyme fitness (log ratio)” value was -0.114.
With G44C A74C A111C the “polymerase ribozyme fitness (log ratio)” value was -0.547.
In the case of A41C G52A A74U C88U, the “polymerase ribozyme fitness (log ratio)” value is reported as -2.04.
In the case of C49A U55G C70U C86U A95C C101U C123A G135C, the “polymerase ribozyme fitness (log ratio)” value is reported as -1.71.
In the case of U54G U59A C80U C123A U129C, the “polymerase ribozyme fitness (log ratio)” value is reported as -1.82.
In the case of C3A G93A A95G, the “polymerase ribozyme fitness (log ratio)” value is reported as -2.11.
In the case of G71C A121C C123U C124U, the “polymerase ribozyme fitness (log ratio)” value is reported as -2.8.
With C73U U96G the “polymerase ribozyme fitness (log ratio)” value was -0.308.
In the case of G71U C82A C88A, the “polymerase ribozyme fitness (log ratio)” value is reported as -1.39.
For C56A G61A, the “polymerase ribozyme fitness (log ratio)” value was -1.51.
With C88A C98A the “polymerase ribozyme fitness (log ratio)” value was -4.39.
In the case of A41U C94G, the “polymerase ribozyme fitness (log ratio)” value is reported as -1.87.
For U21C G48U C53A G117A, the “polymerase ribozyme fitness (log ratio)” value was -1.81.
In the case of U9A C20G C72U U96G C124U, the “polymerase ribozyme fitness (log ratio)” value is reported as -3.12.
With C11G C22G C53G C82U the “polymerase ribozyme fitness (log ratio)” value was -3.79.
With G52C C56A the “polymerase ribozyme fitness (log ratio)” value was -0.559.
For C4A C73U, the “polymerase ribozyme fitness (log ratio)” value was -1.49.
In the case of A29G G110A, the “polymerase ribozyme fitness (log ratio)” value is reported as -2.21.
For C15G C20U, the “polymerase ribozyme fitness (log ratio)” value was -2.98.
With C13A G36A G63A C80U the “polymerase ribozyme fitness (log ratio)” value was -3.86.
With C13G G120A the “polymerase ribozyme fitness (log ratio)” value was -0.711.
For G42C G63A G93C G113U, the “polymerase ribozyme fitness (log ratio)” value was -5.92.
For A5C C64A U112C, the “polymerase ribozyme fitness (log ratio)” value was -6.42.
With C11G G17A C72A C124U the “polymerase ribozyme fitness (log ratio)” value was -3.65.
In the case of G71A C85G, the “polymerase ribozyme fitness (log ratio)” value is reported as -2.38.
With U14A G36U A46C A91U C114G A121U G122A the “polymerase ribozyme fitness (log ratio)” value was -5.85.
With C15U A18U C31A G39U U54A C70U C114U C115G the “polymerase ribozyme fitness (log ratio)” value was -5.12.
With C3A U55C G61A C86U the “polymerase ribozyme fitness (log ratio)” value was -2.
With G10U G69U U112G C123G the “polymerase ribozyme fitness (log ratio)” value was 1.15.
For A46U C53G, the “polymerase ribozyme fitness (log ratio)” value was -0.865.
For A6U C85G, the “polymerase ribozyme fitness (log ratio)” value was -1.65.
